From patent US20190071480A1 (Biogen, published 2019) come the findings set out here.

Assay [1] has as its target T1, extracellular domain of activin receptor type IIB (ActRIIBecd), biotinylated (Homo sapiens (Human), UniProt Q13705 27-117, amino-biotinylated with amine-PEG3-Biotin).
T1 construct: immobilised on a streptavidin-coated sensor chip; also called biotinylated ActRIIBecd; extracellular domain of ActRIIB
T1 sequence: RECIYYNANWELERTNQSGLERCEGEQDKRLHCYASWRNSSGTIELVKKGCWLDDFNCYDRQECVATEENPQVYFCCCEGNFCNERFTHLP
The assay can be described thus: BIAcore SPR as Example 5 (method not restated); SD ±1.43 nM. As to the method: (§1) Biosensor experiments. In one embodiment, experiments were performed on a BIAcore™ T100/T200 instrument (Pharmacia Biosensor AB) in the multichannel mode (serial flow path involving flow cells 1+2+3+4). Flow rate was 10 μl/min; temperature was 25° C.; and data were recorded at 2.5 points/s. All four segments of a sensor chip CMS were coated with streptavidin (Sigma) to a density of 2000 pg/mm² (2000 resonance units) by the aminocoupling procedure. ActRIIBecd (10 mg) and amine-PEG3-Biotin (10 mg, Pierce, Rockford, Ill.) were dissolved in 200 μl H₂O and 10 mg NaCNBH₃ was added to prepare biotinylated ActRIIBecd. The reaction mixture was heated at 70° C. for 24 h, after that a further 10 mg NaCNBH₃ was added and the reaction was heated at 70° C. for another 24 h. After cooling to room temperature, the mixture was desalted with the spin column (3,000 molecular weight cut off (MWCO)). […] Sensograms were recorded during flow of the analyte (the ActRIIBecd-associated polypeptides (i.e., domains) as previously described) first through flow cell 1 (control) then through flow cell 2 (biotinylated ActRIIBecd). […] The sensograms obtained at 1.11, 3.33, 10, 30, and 90 nM analyte were evaluated for equilibrium binding, association rate, and dissociation rate by using the programs supplied with the instrument (BIA evaluation 2.1; Software Handbook. 1995; Pharmacia Biosensor AB).

The target of assay [2] is T1, extracellular domain of activin …. The assay can be described thus: Mean KD column of Table 5; method not restated (BIAcore as Example 5); species also listed in Table 4. The procedure, abridged:
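SPR at 25° C. and 10 μl/min: analyte at 1.11-90 nM (five concentrations, glycine buffer pH 4.5) passed over a control cell, then over streptavidin-captured biotinylated ActRIIBecd at 50-250 RU. Kinetic and equilibrium constants came from control-subtracted sensorgrams.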

For assay [3] the target is unchanged. The assay can be described thus: BIAcore SPR as Example 5 (method not restated); SD ±2.07 nM. The protocol: as §1
A general note: Surface plasmon resonance follows binding to a sensor surface in real time, without labels.

Assay [4] shares this target. The assay can be described thus: BIAcore SPR as Example 5 (method not restated); SD ±1.33 nM. As to the method: as §1
For assay [5] the target is unchanged. Description: BIAcore SPR as Example 5 (method not restated); SD ±2.65 nM. The protocol:
as §1

For assay [6] the target is unchanged. The assay can be described thus: BIAcore SPR as Example 5 (method not restated); SD ±1.18 nM. As to the method:
as §1

Assay [7] shares this target. Description: BIAcore SPR as Example 5 (method not restated); SD ±1.04 nM. The protocol:
as §1

For assay [8] the target is unchanged. The assay can be described thus: BIAcore SPR, biotinylated ActRIIBecd on chip; SD ±17.89 nM. As to the method:
as §1

Assay [9] shares this target. The assay can be described thus: BIAcore SPR, biotinylated ActRIIBecd on chip; SD ±16.78 nM. As to the method: as §1
For assay [10] the target is unchanged. Description: BIAcore SPR as Example 5 (method not restated); SD ±1.39 nM. The protocol: as §1
Assay [11] shares this target. The assay can be described thus: BIAcore SPR as Example 5 (method not restated); SD ±1.71 nM. The protocol: as §1
Assay [12] shares this target. Description: BIAcore SPR as Example 5 (method not restated); SD ±1.59 nM. The protocol:
as §1

The target is the same in assay [13]. The assay can be described thus: BIAcore SPR as Example 5 (method not restated); SD ±1.11 nM. The protocol: as §1
Assay [14] shares this target. Description: BIAcore SPR as Example 5 (method not restated); SD ±1.17 nM. As to the method: as §1
For assay [15] the target is unchanged. The assay can be described thus: BIAcore SPR as Example 5 (method not restated); SD ±2.63 nM. The protocol:
as §1

Assay [16] shares this target. Description: BIAcore SPR as Example 5 (method not restated); SD ±1.95 nM. The protocol:
as §1

B1: SEQ ID NO: 308, cysteine pairs C59-C59^b, C8-C41^a, C9-C43^a, C88-C92^a (designed binder)
chain: NSKDPKACCVPTELSAPSPLYLDENEKPVLKNYQDMVVHGCGCRGQAKRKGYKRLKSSCKRHPLYVDFKDVGWNDHAVAPPGYHAFYCHGECPFPLADHLNSDNHAIVQTKVNSV
modifications: disulfides C59-C59 (inter), C8-C41 (intra), C9-C43 (intra), C88-C92 (intra)
notes: homodimer by intermolecular disulfide
In general, Kd refers to a measure of binding affinity in units of concentration. With B1, the Kd in [1] and in assay [2] was 5.98 nM in each case.

B2: SEQ ID NO: 308, cysteine pairs C8-C9^a (designed binder)
chain: NSKDPKACCVPTELSAPSPLYLDENEKPVLKNYQDMVVHGCGCRGQAKRKGYKRLKSSCKRHPLYVDFKDVGWNDHAVAPPGYHAFYCHGECPFPLADHLNSDNHAIVQTKVNSV
modifications: disulfides C8-C9 (intra)
Turning to B2, the Kd in assay [2] and in [3] was 31.2 nM in each case.

B3: SEQ ID NO: 308, cysteine pairs C59-C59^b, C8-C43^a, C9-C41^a, C88-C92^a (designed binder)
chain: NSKDPKACCVPTELSAPSPLYLDENEKPVLKNYQDMVVHGCGCRGQAKRKGYKRLKSSCKRHPLYVDFKDVGWNDHAVAPPGYHAFYCHGECPFPLADHLNSDNHAIVQTKVNSV
modifications: disulfides C59-C59 (inter), C8-C43 (intra), C9-C41 (intra), C88-C92 (intra)
notes: as for B1
Regarding B3, the Kd in [4] and in assay [2] was 6.11 nM throughout.

B4: SEQ ID NO: 316, cysteine pairs C8-C67^a (designed binder)
chain: NSKDPKACCVPTELSAPSPLYLDENEKPVLKNYQDMVVHGCGCRVDFKDVGWNDHAVAPPGYHAFYCHGECPFPLADHLNSDNHAIVQTKVNSVGQAKRKGYKRLKSSCKRHPLY
modifications: disulfides C8-C67 (intra)
Turning to B4, the Kd in assay [5] and in assay [2] was 28.9 nM in each case.

B5: SEQ ID NO: 316, cysteine pairs C67-C71^a, C8-C43^b, C9-C41^b, C109-C109^b (designed binder)
chain: NSKDPKACCVPTELSAPSPLYLDENEKPVLKNYQDMVVHGCGCRVDFKDVGWNDHAVAPPGYHAFYCHGECPFPLADHLNSDNHAIVQTKVNSVGQAKRKGYKRLKSSCKRHPLY
modifications: disulfides C67-C71 (intra), C8-C43 (inter), C9-C41 (inter), C109-C109 (inter)
notes: as for B1
With B5, the dissociation constant Kd in assay [6] and in [2] was 5.78 nM each time.

B6: SEQ ID NO: 316, cysteine pairs C67-C71^a, C8-C43^a, C9-C41^a, C109-C109^b (designed binder)
chain: NSKDPKACCVPTELSAPSPLYLDENEKPVLKNYQDMVVHGCGCRVDFKDVGWNDHAVAPPGYHAFYCHGECPFPLADHLNSDNHAIVQTKVNSVGQAKRKGYKRLKSSCKRHPLY
modifications: disulfides C67-C71 (intra), C8-C43 (intra), C9-C41 (intra), C109-C109 (inter)
notes: as for B1
In the case of B6, the Kd in assay [7] and in [2] was 6.17 nM in each case.

Consider VDFSDVGWNDWIVAPPGYHAFYCHGECPFPLADHLNSDNHAIVQTLVNSV [Clone No. 17 domain (ActRIIBecd-associated polypeptide)], for which binding in assay [8] was put at a Kd of 67.4 nM.

Consider VDFSDVGWNDHAVAPPGYHAFYCHGECPFPLADHLNSTNHAIVQTLVNSV [Clone No. 18 domain (ActRIIBecd-associated polypeptide)], for which the affinity in assay [9], expressed as Kd, was 64.1 nM.

B7: SEQ ID NO: 300, cysteine pairs C23-C27^a, C65-C65^b, C79-C112^a, C80-C114^a (designed binder)
chain: VDFKDVGWNDHAVAPPGYHAFYCHGECPFPLADHLNSDNHAIVQTKVNSVGQAKRKGYKRLKSSCKRHPLYNSKDPKACCVPTELSAPSPLYLDENEKPVLKNYQDMVVHGCGCR
modifications: disulfides C23-C27 (intra), C65-C65 (inter), C79-C112 (intra), C80-C114 (intra)
notes: as for B1
On to B7, for which the Kd in assay [10] and in [2] was 5.14 nM throughout.

B8: SEQ ID NO: 300, cysteine pairs C23-C27^a, C65-C65^b, C79-C114^a, C80-C112^a (designed binder)
chain: VDFKDVGWNDHAVAPPGYHAFYCHGECPFPLADHLNSDNHAIVQTKVNSVGQAKRKGYKRLKSSCKRHPLYNSKDPKACCVPTELSAPSPLYLDENEKPVLKNYQDMVVHGCGCR
modifications: disulfides C23-C27 (intra), C65-C65 (inter), C79-C114 (intra), C80-C112 (intra)
notes: as for B1
Regarding B8, the Kd in assay [11] and in assay [2] was 7.37 nM in each case.

B9: SEQ ID NO: 324, cysteine pairs C15-C15^b, C79-C114^a, C80-C112^a, C44-C48^a (designed binder)
chain: AQAKHKQRKRLKSSCKRHPLYVDFKDVGWNDHAVAPPGYHAFYCHGECPFPLADHLNSDNHAIVQTKVNSVNSKIPKACCVPTELSAISMLYLDENEKVVLKNYQDMVVEGCGCR
modifications: disulfides C15-C15 (inter), C79-C114 (intra), C80-C112 (intra), C44-C48 (intra)
notes: as for B1
On to B9, for which the Kd in assay [12] and in [2] was 8.42 nM throughout.

B10: SEQ ID NO: 332, cysteine pairs C15-C15^b, C80-C114^a, C79-C112^a, C44-C48^a (designed binder)
chain: GQAKRKGYKRLKSSCKRHPLYVDFSDVGWNDWIVAPPGYHAFYCHGECPFPLADHLNSTNHAIVQTLVNSVNSKDPKACCVPTELSAPSPLYLDENEKPVLKNYQDMVVHGCGCR
modifications: disulfides C15-C15 (inter), C80-C114 (intra), C79-C112 (intra), C44-C48 (intra)
notes: as for B1
Take B10: the equilibrium dissociation constant (Kd) in [13] and in assay [2] was 5.98 nM in each case.

B11: SEQ ID NO: 340, cysteine pairs C15-C15^b, C29-C62^a, C30-C64^a, C88-C92^a (designed binder)
chain: AQAKHKQRKRLKSSCKRHPLYNSKDPKACCVPTELSAPSPLYLDENEKPVLKNYQDMVVHGCGCRVDFKDVGWNDHAVAPPGYHAFYCHGECPFPLADHLNSDNHAIVQTKVNSV
modifications: disulfides C15-C15 (inter), C29-C62 (intra), C30-C64 (intra), C88-C92 (intra)
notes: as for B1
Turning to B11, the Kd in assay [14] and in assay [2] was 5.77 nM in each case.

B12: SEQ ID NO: 340, cysteine pairs C15-C29^a (designed binder)
chain: AQAKHKQRKRLKSSCKRHPLYNSKDPKACCVPTELSAPSPLYLDENEKPVLKNYQDMVVHGCGCRVDFKDVGWNDHAVAPPGYHAFYCHGECPFPLADHLNSDNHAIVQTKVNSV
modifications: disulfides C15-C29 (intra)
Turning to B12, the Kd in [15] and in assay [2] was 30.1 nM in each case.

B13: SEQ ID NO: 340, cysteine pairs C15-C15^b, C29-C64^a, C30-C62^a, C88-C92^a (designed binder)
chain: AQAKHKQRKRLKSSCKRHPLYNSKDPKACCVPTELSAPSPLYLDENEKPVLKNYQDMVVHGCGCRVDFKDVGWNDHAVAPPGYHAFYCHGECPFPLADHLNSDNHAIVQTKVNSV
modifications: disulfides C15-C15 (inter), C29-C64 (intra), C30-C62 (intra), C88-C92 (intra)
notes: as for B1
For B13, the Kd in assay [16] and in assay [2] was 7.19 nM in each case.
